Results reported in patent publication WO2021028359A1 (dated 2021).

Molecular target: HLA-A2 on HLA-A2 positive peripheral blood mononuclear cells (human)
Test: cell-based or functional assay

B1: HLA-A2 CAR (anti-HLA-A2 chimeric antigen receptor: CD8 leader, scFv directed against HLA-A2, CD8 alpha linker and transmembrane domain, CD28 activation domain, … (receptor)
chain: SQVQLQQSGPELVKPGASVKMSCKASGYTFTSYHIQWVKQRPGQGLEWIGWIYPGDGSTQYNEKFKGKTTLTADKSSSTAYMLLSSLTSEDSAIYFCAREGTYYAMDYWGQGTSVTVSSGGGGSGGGGSGGGGSDVLMTQTPLSLPVSLGDQVSISCRSSQSIVHSNGNTYLEWYLQKPGQSPKLLIYKVSNRFSGVPDRFSGSGSGTDFTLKISRVEAEDLGVYYCFQGSHVPRTFGGGTKLEIKRTTTPAPRPPTPAPTIASQPLSLRPEACRPAAGGAVHTRGLDFACDIYIWAPLAGTCGVLLLSLVITLYCRSKRSRLLHSDYMNMTPRRPGPTRKHYQPYAPPRDFAAYRSRVKFSRSADAPAYQQGQNQLYNELNLGRREEYDVLDKRRGRDPEMGGKPRRKNPQEGLYNELQKDKMAEAYSEIGMKGERRRGKGHDGLYQGLSTATKDTYDALHMQALPPR
  CD69 cell surface expression on Tregs transduced with TX135 (PGK promoter), 24 h co-incubation, flow cytometry: 3.7 fold
  CD69 cell surface expression on Tregs transduced with pTX137 (EF1a promoter), 24 h co-incubation, flow cytometry: < 2 fold
  CD69 cell surface expression on Tregs transduced with pTX138 (EF1a promoter + WpreMut6), 24 h co-incubation, flow cytometry: < 2 fold
